Assay results taken from patent US20250163145A1 (SHIONOGI, published 2025).
Where a chain is given by its changes, count along the chain named. Names may count otherwise. Where no end group is shown, it is not given here.

T1: epitope peptide Cys-CE3C long (also: biotin label, site not given here)
T1 peptide: CSVNVDKQPKYEYSL

B1: h15H11-61 (antibody, human IgG4 S228P, kappa, V domains shown)
VH: QVQLVQSGSELKKPGASVKVSCKASGYTFTDYNMHWVRQAPGRSLEWMGRINPKNGVILSNEKFKDRFVFSLDTSVSTAYLQISSLKAEDTAVYYCAPSYYGGDDDAYWGQGTLVTVSS
VL: DIVMTQSPDSLAVSLGERATINCRASDSVDNYGISFLNWFQQKPGQPPKLLIYAASSQGSGVPDRFSGSGSGTDFTLTINPMEAEDTANYYCQQSKEFPWTFGGGTKVEIKR
notes: hIgG4Pro/hIgK
B2: h15H11-65 (antibody, human IgG4 S228P, kappa, V domains shown)
VH: B1 VH
VL: B1 VL with D64A, N80S, P81S, E83Q, T87V, N89M
notes: hIgG4Pro/hIgK
B3: h15H11-57 (antibody, human IgG4 S228P, kappa, V domains shown)
VH: B1 VH
VL: B1 VL with D27E, L37M, N80S, P81S, E83Q, T87V, N89V
notes: hIgG4Pro/hIgK
B4: h15H11-63 (antibody, human IgG4 S228P, kappa, V domains shown)
VH: B1 VH
VL: B1 VL with N80S, P81S, E83Q, N89V
notes: hIgG4Pro/hIgK
B5: h15H11-56 (antibody, human IgG4 S228P, kappa, V domains shown)
VH: B1 VH
VL: B1 VL with D27E, L37M, E83Q, T87V, N89V
notes: hIgG4Pro/hIgK
B6: h15H11-55 (antibody, human IgG4 S228P, kappa, V domains shown)
VH: B1 VH
VL: B1 VL with D27E, L37M, N80S, P81S, E83Q, T87V, N89M
notes: hIgG4Pro/hIgK
B7: h15H11-58 (antibody, human IgG4 S228P, kappa, V domains shown)
VH: B1 VH
VL: B1 VL with N80S, P81S, E83Q, T87V, N89M
notes: hIgG4Pro/hIgK
B8: h15H11-60 (antibody, human IgG4 S228P, kappa, V domains shown)
VH: B1 VH
VL: B1 VL with N80S, P81S, E83Q, T87V, N89V
notes: hIgG4Pro/hIgK
B9: h15H11-62 (antibody, human IgG4 S228P, kappa, V domains shown)
VH: B1 VH
VL: B1 VL with N80S, P81S, T87V, N89V
notes: hIgG4Pro/hIgK
B10: h15H11-59 (antibody, human IgG4 S228P, kappa, V domains shown)
VH: B1 VH
VL: B1 VL with E83Q, T87V, N89V
notes: hIgG4Pro/hIgK
B11: h15H11-64 (antibody, human IgG4 S228P, kappa)
heavy: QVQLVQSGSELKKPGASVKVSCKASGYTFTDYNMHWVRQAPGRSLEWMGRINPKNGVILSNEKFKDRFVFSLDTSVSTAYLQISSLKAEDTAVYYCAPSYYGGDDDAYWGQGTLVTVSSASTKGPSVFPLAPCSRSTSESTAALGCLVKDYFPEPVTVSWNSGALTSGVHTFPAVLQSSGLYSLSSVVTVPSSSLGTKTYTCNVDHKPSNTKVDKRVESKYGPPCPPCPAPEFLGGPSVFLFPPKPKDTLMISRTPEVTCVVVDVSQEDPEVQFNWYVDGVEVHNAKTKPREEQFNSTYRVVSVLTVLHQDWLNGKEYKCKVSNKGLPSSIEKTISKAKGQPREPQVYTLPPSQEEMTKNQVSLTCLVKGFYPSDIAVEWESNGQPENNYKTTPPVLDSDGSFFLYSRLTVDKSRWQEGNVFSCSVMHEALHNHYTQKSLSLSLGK
light: DIVMTQSPDSLAVSLGERATINCRASDSVDNYGISFLNWFQQKPGQPPKLLIYAASSQGSGVPARFSGSGSGTDFTLTISSMQAEDVAVYYCQQSKEFPWTFGGGTKVEIKRTVAAPSVFIFPPSDEQLKSGTASVVCLLNNFYPREAKVQWKVDNALQSGNSQESVTEQDSKDSTYSLSSTLTLSKADYEKHKVYACEVTHQGLSSPVTKSFNRGEC
notes: hIgG4Pro/hIgK
B12: h15H11-66 (antibody, human IgG4 S228P, kappa)
heavy: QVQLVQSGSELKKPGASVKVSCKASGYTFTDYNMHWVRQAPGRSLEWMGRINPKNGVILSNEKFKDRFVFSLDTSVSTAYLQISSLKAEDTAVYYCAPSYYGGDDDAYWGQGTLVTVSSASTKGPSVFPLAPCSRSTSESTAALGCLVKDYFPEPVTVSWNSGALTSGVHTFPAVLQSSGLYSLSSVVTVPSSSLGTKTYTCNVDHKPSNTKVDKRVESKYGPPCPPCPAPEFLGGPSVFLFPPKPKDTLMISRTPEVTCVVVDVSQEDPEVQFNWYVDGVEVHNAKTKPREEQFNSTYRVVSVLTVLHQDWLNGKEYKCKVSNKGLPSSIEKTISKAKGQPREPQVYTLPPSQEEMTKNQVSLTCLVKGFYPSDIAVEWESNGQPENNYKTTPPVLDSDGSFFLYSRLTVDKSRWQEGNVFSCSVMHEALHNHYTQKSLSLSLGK
light: B11 light with M4L, D9A
notes: hIgG4Pro/hIgK
B13: h15H11-67 (antibody, human IgG4 S228P, kappa)
heavy: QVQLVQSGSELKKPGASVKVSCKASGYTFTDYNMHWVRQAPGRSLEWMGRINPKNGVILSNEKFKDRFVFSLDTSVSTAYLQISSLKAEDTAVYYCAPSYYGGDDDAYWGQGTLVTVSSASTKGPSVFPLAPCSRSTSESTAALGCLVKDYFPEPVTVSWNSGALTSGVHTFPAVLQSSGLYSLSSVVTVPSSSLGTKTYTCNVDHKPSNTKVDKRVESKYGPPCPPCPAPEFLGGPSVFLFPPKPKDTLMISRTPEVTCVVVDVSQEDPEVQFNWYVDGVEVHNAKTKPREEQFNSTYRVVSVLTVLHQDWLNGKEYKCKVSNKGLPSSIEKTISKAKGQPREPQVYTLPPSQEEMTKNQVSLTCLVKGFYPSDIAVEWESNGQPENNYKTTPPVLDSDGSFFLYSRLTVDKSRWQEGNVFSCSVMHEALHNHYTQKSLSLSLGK
light: B11 light with M4L, D9A, E17Q
notes: hIgG4Pro/hIgK
B14: humanized 15H11 CDR graft IGKV4-1 / IGHV1-2 (R94P) (antibody, human IgG4 S228P, kappa, V domains shown)
VH: QVQLVQSGAEVKKPGASVKVSCKASGYTFTDYNMHWVRQAPGQGLEWMGRINPKNGVINSNEKFKDRVTMTRDTSISTAYMELSRLRSDDTAVYYCAPSYYGGNTDAYWGQGTLVTVSS
VL: B1 VL with D27E, L37M, F40Y, N80S, P81S, M82L, E83Q, T87V, N89V
notes: hIgG4Pro/hIgK
B15: humanized 15H11 CDR graft IGKV4-1 / IGHV7-4-1 (R94P) (antibody, human IgG4 S228P, kappa, V domains shown)
VH: B1 VH with R43Q, S44G, L59N, D104N, D105T
VL: B1 VL with D27E, L37M, F40Y, N80S, P81S, M82L, E83Q, T87V, N89V
notes: hIgG4Pro/hIgK
B16: humanized 15H11 CDR graft IGKV4-1 / IGHV1-18 (R94P) (antibody, human IgG4 S228P, kappa, V domains shown)
VH: B14 VH with R72T, I76T, S84R, R85S
VL: B1 VL with D27E, L37M, F40Y, N80S, P81S, M82L, E83Q, T87V, N89V
notes: hIgG4Pro/hIgK
B17: humanized 15H11 CDR graft IGKV4-1 / IGHV1-2 (antibody, human IgG4 S228P, kappa, V domains shown)
VH: B14 VH with P98R
VL: B1 VL with D27E, L37M, F40Y, N80S, P81S, M82L, E83Q, T87V, N89V
notes: hIgG4Pro/hIgK
B18: humanized 15H11 CDR graft IGKV4-1 / IGHV1-3 (R94P) (antibody, human IgG4 S228P, kappa, V domains shown)
VH: B14 VH with G44R, M70I, I76A, R85S, D89E
VL: B1 VL with D27E, L37M, F40Y, N80S, P81S, M82L, E83Q, T87V, N89V
notes: hIgG4Pro/hIgK
B19: humanized 15H11 CDR graft IGKV3-20 / IGHV7-4-1 (R94P) (antibody, human IgG4 S228P, kappa, V domains shown)
VH: B1 VH with R43Q, S44G, L59N, D104N, D105T
VL: EIVLTQSPATLSLSPGERATLSCRASESVDNYGISFMNWYQQKPGQAPRLLIYAASSQGSGIPARFSGSGSGTDFTLTISRLEPEDFAVYYCQQSKEFPWTFGGGTKVEIKR
notes: hIgG4Pro/hIgK
B20: humanized 15H11 CDR graft IGKV4-1 / IGHV1-46 (R94P) (antibody, human IgG4 S228P, kappa, V domains shown)
VH: B14 VH with I76T, A79V, R85S, D89E
VL: B1 VL with D27E, L37M, F40Y, N80S, P81S, M82L, E83Q, T87V, N89V
notes: hIgG4Pro/hIgK
B21: humanized 15H11 CDR graft IGKV7-3 / IGHV1-2 (antibody, human IgG4 S228P, kappa, V domains shown)
VH: B14 VH with P98R
VL: DIVLTQSPASLAVSPGQRATITCRASESVDNYGISFMNWYQQKPGQPPKLLIYAASSQGSGVPARFSGSGSGTDFTLTINPVEANDTANYYCQQSKEFPWTFGGGTKVEIKR
notes: hIgG4Pro/hIgK
B22: humanized 15H11 CDR graft IGKV7-3 / IGHV1-46 (R94P) (antibody, human IgG4 S228P, kappa, V domains shown)
VH: B14 VH with I76T, A79V, R85S, D89E
VL: B21 VL
notes: hIgG4Pro/hIgK
B23: humanized 15H11 CDR graft IGKV7-3 / IGHV1-3 (R94P) (antibody, human IgG4 S228P, kappa, V domains shown)
VH: B14 VH with G44R, M70I, I76A, R85S, D89E
VL: B21 VL
notes: hIgG4Pro/hIgK
B24: humanized 15H11 CDR graft IGKV7-3 / IGHV1-2 (R94P) (antibody, human IgG4 S228P, kappa, V domains shown)
VH: B14 VH
VL: B21 VL
notes: hIgG4Pro/hIgK
B25: humanized 15H11 CDR graft IGKV7-3 / IGHV1-18 (R94P) (antibody, human IgG4 S228P, kappa, V domains shown)
VH: B14 VH with R72T, I76T, S84R, R85S
VL: B21 VL
notes: hIgG4Pro/hIgK

Target: T1, epitope peptide Cys-CE3C long
Experiment: competitive ELISA, unlabeled vs biotin-labeled peptide, antibody on anti-human IgG plate
Experimental: A diluted solution of the obtained recombinant humanized antibody, a biotin-labeled immunogen peptide, and Streptavidin-HRP (manufactured by PIERCE) were added to an anti-human IgG antibody-immobilized plate, and reacted overnight at 4° C. […] Next, a recombinant human antibody at the dilution rate, a biotin-labeled immunogen peptide, and Streptavidin-HRP (manufactured by PIERCE) were added. At the same time, a dilution series of unlabeled immunogenic peptide was added and reacted overnight at 4° C. After washing twice with ELISA wash buffer, TMB-Substrate Chromogen (manufactured by Thermo Fisher Scientific) was added to develop color, the reaction was stopped with an equal amount of 0.5N sulfuric acid, and the absorbance at 450 nm was measured. The concentration of the unlabeled peptide which attenuated the signal of the biotin-labeled peptide by half was defined as the affinity (IC50).
A mutant having the heavy chain variable region represented by IGHV7-4-1 Q43R, G44S, N58L, N100D, T100aD, R94P (SEQ ID NO: 33) and the light chain variable region represented by IGKV4-1 (SEQ ID NO: 18) produced in Example 3 was produced. New mutants (h15H11-55 to 67) were produced in which various mutations were introduced into the light chain human framework sequence of the produced mutants, and affinity evaluation was performed on the produced mutants by the method described in Example 5.

IC50 | Binder
790 pM | B1
750 pM | B2
890 pM | B3
640 pM | B4
850 pM | B5
820 pM | B6
780 pM | B7
790 pM | B8
730 pM | B9
800 pM | B10
680 pM | B11
530 pM | B12
460 pM | B13

Target: T1, epitope peptide Cys-CE3C long
Experiment: ELISA, supernatant IgG on anti-human IgG plate, biotin-peptide + streptavidin-HRP; titer per unit IgG
Experimental: The amount of IgG in the supernatant was determined by the following method. To evaluate the amount of IgG in the supernatant, the culture supernatant was added to an anti-human IgG antibody (manufactured by Jackson) immobilized plate, after reacting at room temperature for 3 hours, washed twice with ELISA wash buffer, and HRP-labeled anti-human IgG antibody (manufactured by Jackson) was reacted at 4° C. overnight. After washing twice with ELISA wash buffer and developing color by adding TMB-Substrate Chromogen (manufactured by Thermo Fisher Scientific), the reaction was stopped with an equal volume of 0.5N sulfuric acid, and the absorbance at 450 nm was measured to calculate (A) the dilution factor of the culture supernatant at which the OD was 1.0.
The titer of IgG in the supernatant against the epitope peptide was determined by the following method. In order to evaluate the titer of IgG in the supernatant against epitope peptides, the culture supernatant was added to an anti-human IgG antibody (manufactured by Jackson) immobilized plate, reacted for 3 hours at room temperature, and then washed twice with ELISA wash buffer, and a biotin-labeled epitope peptide (Cys-CE3C long: SEQ ID NO: 13) and Streptavidin-HRP (manufactured by PIERCE) were added and reacted overnight at 4° C. After washing twice with ELISA wash buffer and developing color by adding TMB-Substrate Chromogen (manufactured by Thermo Fisher Scientific), the reaction was stopped with an equal volume of 0.5N sulfuric acid, the absorbance at 450 nm was measured to calculate (B) the dilution ratio of the culture supernatant at which the OD was 1.0.
The titer (ratio) against the epitope peptide (Cys-CE3C long: SEQ ID NO: 13) per unit IgG amount was calculated as (B)/(A).

(B)/(A) titer (ratio) against the epitope peptide per unit IgG amount | Binder
0.18 | B14
0.21 | B15
0.13 | B16
0.03 | B17
0.15 | B18
0.15 | B19
0.13 | B20
0.04 | B21
0.18 | B22
0.21 | B23
0.22 | B24
0.24 | B25
